Data reported in patent US20210206866A1 (EUCURE BEIJING BIOPHARMA, published 2021).
Substitutions are numbered along the chain they refer to.

T1: Human OX40 protein (hOX40-His) (human, UniProt P43489 29-214)
T1 construct: Soluble analyte in the SPR assay; also called His-tagged human OX40; not shown: His tag
T1 sequence: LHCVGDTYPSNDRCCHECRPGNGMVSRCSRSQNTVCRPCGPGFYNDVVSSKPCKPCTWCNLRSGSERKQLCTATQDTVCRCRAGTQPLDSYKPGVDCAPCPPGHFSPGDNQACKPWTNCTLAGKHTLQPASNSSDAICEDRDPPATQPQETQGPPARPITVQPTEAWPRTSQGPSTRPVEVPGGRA

T2: mouse OX40 on transfected CHO cells (mouse, UniProt P47741 20-272)
T2 construct: also called mOX40
T2 sequence: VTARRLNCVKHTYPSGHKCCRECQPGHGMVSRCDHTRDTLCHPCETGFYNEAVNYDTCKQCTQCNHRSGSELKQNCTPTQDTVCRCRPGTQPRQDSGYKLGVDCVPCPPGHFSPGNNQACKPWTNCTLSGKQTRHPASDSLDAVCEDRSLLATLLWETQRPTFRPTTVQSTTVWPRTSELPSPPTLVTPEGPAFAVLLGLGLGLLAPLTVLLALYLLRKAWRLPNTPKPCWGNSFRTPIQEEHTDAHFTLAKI

B1: mouse anti-hOX40 antibody 07-9H3 (antibody, V domains shown)
VH: QVQLKQSGPGLVQPSQSLSITCTVSGFSLTSYGVLWVRQPPGKGLEWLGVIWSGGSTDYNAAFISRLSISKDNSKSQVFFKMNSLQADDTAIYYCAREEFGYWGQGTLVTVSA
VL: DIQMTQTTSSLSASLGDRVTISCRASQDINNYLNWYQQKPDGTVKLLIYYTSRLHSGVPSRFSGSGSGTDYSLTISNLEQEDIATYFCQQTNTLPWTFGGGTKLEIK
notes: Mouse IgG purified from ascites fluid
B2: 9A4-mHvKv-IgG1 (antibody, V domains shown)
VH: EVQLQQFGAELVKPGASVKISCKASGYTFTDYNMDWVKQSHGKSLEWIGDINPNYDSTSYNQKFKGKATLTVDKSSSTAYMELRSLTSEDTAVYYCARGGYGNYVDYFDYWGQGTTLTVSS
VL: NIVMTQSPKSMSMSVGERVTLSCKASENVVTYVSWYQQKPEQSPKLLIYGASNRYTGVPDRFTGSGSATDFTLTISSVQAEDLADYHCGQSYSYPYTFGGGTKLEIK
notes: Chimeric: mouse 9A4 variable domains with human IgG1 constant domains; also called 9A4 chimeric antibody
B3: 9A4 (mouse antibody) (antibody, V domains shown)
VH: B2 VH
VL: B2 VL
notes: also called 07-9A4
B4: 5C1-mHvKv-IgG1 (antibody, V domains shown)
VH: EVQLQQSGTVLARPGASVKMSCKASGYSFTSYWMHWVKQRPGQGLEWIGTIYPGNSDTSNNQKFKGKAKLTAVTSASTAYMELSSLTNEDSAVYYCTTFYYRYEDYYAMDYWGQGTSVTVSS
VL: DIVMTQSHKFMSTSVGDRVSITCKASQDVNTAVAWYQQKPGQSPKLLIYSASYRYTGVPDRFTGSGSGTDFTFTISSVQAEDLAVYYCQQHYSTPFTFGSGTKLEIK
notes: Chimeric: mouse 5C1 variable domains with human IgG1 constant domains; also called 5C1 chimeric antibody
B5: 9H3-mHvKv-IgG1 (antibody, V domains shown)
VH: B1 VH
VL: B1 VL
notes: Chimeric: mouse 9H3 variable domains with human IgG1 constant domains (CL, CH1, CH2, CH3); also called 9H3 chimeric antibody; chimeric anti-hOX40 antibody
B6: 5D10-mHvKv-IgG1 (antibody, V domains shown)
VH: QVQLKESGPGLVAPSQSLSITCTVSGFSLTSYGVHWIRQPPGKGLEWLGVIWAGGNTNYNSALMSRLSISKDNSKSQVFLKMNSLQTDDTAMYNCASYDGYYGWFAYWGQGTLVTVSV
VL: B1 VL with N30S, N31Y, T91G, N92H
notes: Chimeric: mouse 5D10 variable domains with human IgG1 constant domains; also called 5D10 chimeric antibody
B7: 9H3-H2K2-IgG1 (antibody, V domains shown)
VH: QVQLVESGGGVVQPGRSLRISCAVSGFSLTSYGVLWVRQAPGKGLEWVAVIWSGGSTDYNAAFISRLTISRDNSKSTVYFQMNSLRAEDTAVYYCAREEFGYWGQGTLVTVSS
VL: DIQMTQSPSSLSASVGDRVTITCRASQDINNYLNWYQQKPGGAVKLLIYYTSRLHSGVPSRFSGSGSGTDFTLTISSLQPEDIATYYCQQTNTLPWTFGGGTKLEIKR
notes: Humanized, with human IgG1 constant domains; also called 9H3 humanized antibody H2K2
B8: 9H3-H3K3-IgG1 (antibody, V domains shown)
VH: B7 VH with V48L, A49G
VL: B7 VL with F71Y, Y87F
notes: Humanized, with human IgG1 constant domains; also called 9H3 humanized antibody H3K3
B9: 9H3-H3K2-IgG1 (antibody, V domains shown)
VH: B7 VH with V48L, A49G
VL: B7 VL
notes: Humanized, with human IgG1 constant domains; also called 9H3 humanized antibody H3K2
B10: 9H3-H3K1-IgG1 (antibody, V domains shown)
VH: B7 VH with V48L, A49G
VL: B7 VL with S56T, I106V
notes: Humanized, with human IgG1 constant domains; also called 9H3 humanized antibody H3K1
B11: 9H3-H2K1-IgG1 (antibody, V domains shown)
VH: B7 VH
VL: B7 VL with S56T, I106V
notes: Humanized, with human IgG1 constant domains (CL, CH1, CH2, CH3); also called 9H3 humanized antibody H2K1
B12: 9H3-H2K3-IgG1 (antibody, V domains shown)
VH: B7 VH
VL: B7 VL with F71Y, Y87F
notes: Humanized, with human IgG1 constant domains; also called 9H3 humanized antibody H2K3

What follows are binders tested against chimeric (mouse and human) OX40 on transfected CHO cells (chimeric (mouse and human)) (assay: flow cytometry, CHO-chiOX40 cells; antibody at 1 ug/ml; anti-mIgG Fc-FITC (x axis) against SSC-H; NC panel of the same cells 2.78%).

Binder | % of cells in the anti-mouse-IgGFc-FITC positive gate [%]
B1 | 33.9

The binders below were run against T1, Human OX40 protein (hOX40-His) (assay: SPR, Biacore T200, antibody captured on Protein A chip, hOX40-His as analyte, 1:1 Langmuir fit).
Procedure: The antibodies were tested for hOX40 binding. The affinity of an antibody was determined by surface plasmon resonance (Biacore T200 biosensor, Biacore, INC, Piscataway N.J.) equipped with pre-immobilized Protein A sensor chips.
Anti-hOX40 antibody 9H3-mHvKv-IgG1 (1 μg/mL) were injected into Biacore T200 biosensor at 10 μL/min for 25 seconds to achieve to a desired protein density (about 112 response units (RU)). […] Dissociation was monitored for 300 seconds. The chip was regenerated after the last injection of each titration with Glycine (pH 2.0, 30 μL/min for 12 seconds).
The same method with necessary appropriate adjustments for parameters (e.g., concentrations of the antibodies) were performed for all other tested antibodies.

Binder | Kd [nM] | koff [s⁻¹] | kon [M⁻¹ s⁻¹]
B2 | 55.3 | 0.00669 | 121000
B3 | 21.6 | 0.00192 | 89100
B4 | 29.8 | 0.00163 | 54900
B5 | 2.31 | 0.000594 | 258000
B6 | 46.5 | 0.0147 | 317000
B7 | 3.84 | 0.00087 | 227000
B8 | 1.92 | 0.000451 | 235000
B9 | 3.34 | 0.000642 | 192000
B10 | 2.49 | 0.000606 | 244000
B11 | 3.35 | 0.000748 | 223000
B12 | 1.55 | 0.000393 | 254000

The binders below were run against T2, mouse OX40 on transfected CHO cells (assay: flow cytometry, CHO-mOX40 cells; anti-mIgG Fc-FITC against SSC-H).
Procedure: 25 ul CHO cells were added to each well. 25 ul purified anti-hOX40 antibodies (1 ug/ml) (9H3 or “07-9H3”) were added to each well and were incubated at 4° C. for 30 minutes.
After being washed with PBS (1200 rmp, 5 min) twice, 50 ul of anti-mouse IgG Fc antibody fluorescein isothiocyanate conjugate (anti-mIgG Fc-FITC) with 1:500 dilution was added into each well and was incubated at 4° C. for 30 minutes, followed by PBS wash (1200 rmp, 5 min). The signals for FITC were determined by flow cytometry.

Binder | binding result
B1 | no binding
